Patent publication US20050003416

T1: SolCorin-EK (soluble modified human corin, zymogen)
T1 sequence: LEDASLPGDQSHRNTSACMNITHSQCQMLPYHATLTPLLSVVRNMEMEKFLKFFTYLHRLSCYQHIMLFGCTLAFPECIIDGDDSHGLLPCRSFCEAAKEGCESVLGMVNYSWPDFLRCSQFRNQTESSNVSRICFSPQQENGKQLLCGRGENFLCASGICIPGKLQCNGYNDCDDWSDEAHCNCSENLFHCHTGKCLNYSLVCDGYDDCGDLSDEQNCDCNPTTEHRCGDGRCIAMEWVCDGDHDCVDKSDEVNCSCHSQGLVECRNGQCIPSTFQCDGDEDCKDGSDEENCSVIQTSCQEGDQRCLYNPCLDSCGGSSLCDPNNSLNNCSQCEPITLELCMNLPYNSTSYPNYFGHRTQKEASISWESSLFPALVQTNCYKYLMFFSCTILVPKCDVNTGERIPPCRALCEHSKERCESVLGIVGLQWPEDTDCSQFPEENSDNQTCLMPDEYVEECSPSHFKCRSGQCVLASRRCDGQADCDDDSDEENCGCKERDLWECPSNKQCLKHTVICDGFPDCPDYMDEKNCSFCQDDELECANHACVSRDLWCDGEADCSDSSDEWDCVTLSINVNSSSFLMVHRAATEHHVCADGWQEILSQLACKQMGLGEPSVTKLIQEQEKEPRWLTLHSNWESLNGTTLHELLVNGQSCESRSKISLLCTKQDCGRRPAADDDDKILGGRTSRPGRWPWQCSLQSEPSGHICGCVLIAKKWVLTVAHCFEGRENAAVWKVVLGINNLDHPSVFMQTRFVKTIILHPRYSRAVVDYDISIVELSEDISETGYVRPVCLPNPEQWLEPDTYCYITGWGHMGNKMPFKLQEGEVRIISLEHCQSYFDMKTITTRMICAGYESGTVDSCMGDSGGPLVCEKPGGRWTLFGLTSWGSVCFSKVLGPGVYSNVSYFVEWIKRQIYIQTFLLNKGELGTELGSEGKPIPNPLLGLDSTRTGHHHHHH

T2: SolCorinPD-EK (soluble modified human corin protease domain, zymogen)
T2 sequence: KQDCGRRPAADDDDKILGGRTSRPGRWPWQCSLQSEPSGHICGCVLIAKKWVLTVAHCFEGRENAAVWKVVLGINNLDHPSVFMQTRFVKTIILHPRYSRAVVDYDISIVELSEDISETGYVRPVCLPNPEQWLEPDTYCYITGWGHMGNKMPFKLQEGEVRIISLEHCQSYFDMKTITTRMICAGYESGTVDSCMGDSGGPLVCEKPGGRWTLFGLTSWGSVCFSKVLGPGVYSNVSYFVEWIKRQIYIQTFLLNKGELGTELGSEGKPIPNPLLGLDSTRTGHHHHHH

T3: recombinant human wild-type pro-ANP with C-terminal V5 and 6xHis tags, P01160
T3 chain: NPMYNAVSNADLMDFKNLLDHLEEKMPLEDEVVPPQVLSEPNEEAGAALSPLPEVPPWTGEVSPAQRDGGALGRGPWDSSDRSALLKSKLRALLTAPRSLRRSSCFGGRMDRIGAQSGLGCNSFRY


Legend:
[1] = system: T1, SolCorin-EK (soluble modified human corin, zymogen)
[2] = system: T2, SolCorinPD-EK (soluble modified human corin protease domain, zymogen)
[3] = target: T3, recombinant human wild-type pro-ANP …

Molecule | cleavage of soluble corin by 0, 2, 10, 20 or 40 units enterokinase, 25 C, 4 hrs (anti-V5 Western blot) [1] | cleavage of soluble corin by 0, 2, 10, 20 or 40 units enterokinase, 25 C, 4 hrs (anti-V5 Western blot) [2] | processing of pro-ANP to ANP in mixed conditioned media, 4 C, 3 hours (anti-V5 immunoprecipitation and Western blot) [3]
purified enterokinase (Calbiochem) | both the long form (SolCorin-EK) and short form (SolCorinPD-EK) of soluble modified human corin were cleaved by exposure to enterokinase in a dose-dependent manner | both the long form (SolCorin-EK) and short form (SolCorinPD-EK) of soluble modified human corin were cleaved by exposure to enterokinase in a dose-dependent manner | 
enterokinase-activated SolCorin-EK (protein) chain 1: LEDASLPGDQSHRNTSACMNITHSQCQMLPYHATLTPLLSVVRNMEMEKFLKFFTYLHRLSCYQHIMLFGCTLAFPECIIDGDDSHGLLPCRSFCEAAKEGCESVLGMVNYSWPDFLRCSQFRNQTESSNVSRICFSPQQENGKQLLCGRGENFLCASGICIPGKLQCNGYNDCDDWSDEAHCNCSENLFHCHTGKCLNYSLVCDGYDDCGDLSDEQNCDCNPTTEHRCGDGRCIAMEWVCDGDHDCVDKSDEVNCSCHSQGLVECRNGQCIPSTFQCDGDEDCKDGSDEENCSVIQTSCQEGDQRCLYNPCLDSCGGSSLCDPNNSLNNCSQCEPITLELCMNLPYNSTSYPNYFGHRTQKEASISWESSLFPALVQTNCYKYLMFFSCTILVPKCDVNTGERIPPCRALCEHSKERCESVLGIVGLQWPEDTDCSQFPEENSDNQTCLMPDEYVEECSPSHFKCRSGQCVLASRRCDGQADCDDDSDEENCGCKERDLWECPSNKQCLKHTVICDGFPDCPDYMDEKNCSFCQDDELECANHACVSRDLWCDGEADCSDSSDEWDCVTLSINVNSSSFLMVHRAATEHHVCADGWQEILSQLACKQMGLGEPSVTKLIQEQEKEPRWLTLHSNWESLNGTTLHELLVNGQSCESRSKISLLCTKQDCGRRPAADDDDK chain 2: ILGGRTSRPGRWPWQCSLQSEPSGHICGCVLIAKKWVLTVAHCFEGRENAAVWKVVLGINNLDHPSVFMQTRFVKTIILHPRYSRAVVDYDISIVELSEDISETGYVRPVCLPNPEQWLEPDTYCYITGWGHMGNKMPFKLQEGEVRIISLEHCQSYFDMKTITTRMICAGYESGTVDSCMGDSGGPLVCEKPGGRWTLFGLTSWGSVCFSKVLGPGVYSNVSYFVEWIKRQIYIQTFLLNKGELGTELGSEGKPIPNPLLGLDSTRTGHHHHHH |  |  | pro-ANP was processed to ANP by the long form (SolCorin-EK), but not the short form (SolCorin-PD-EK), of soluble modified human corin upon activation by enterokinase in vitro
enterokinase-activated SolCorinPD-EK (protein) chain 1: KQDCGRRPAADDDDK chain 2: ILGGRTSRPGRWPWQCSLQSEPSGHICGCVLIAKKWVLTVAHCFEGRENAAVWKVVLGINNLDHPSVFMQTRFVKTIILHPRYSRAVVDYDISIVELSEDISETGYVRPVCLPNPEQWLEPDTYCYITGWGHMGNKMPFKLQEGEVRIISLEHCQSYFDMKTITTRMICAGYESGTVDSCMGDSGGPLVCEKPGGRWTLFGLTSWGSVCFSKVLGPGVYSNVSYFVEWIKRQIYIQTFLLNKGELGTELGSEGKPIPNPLLGLDSTRTGHHHHHH |  |  | pro-ANP was processed to ANP by the long form (SolCorin-EK), but not the short form (SolCorin-PD-EK), of soluble modified human corin upon activation by enterokinase in vitro
